Laboratory results from PMC10033635.

Biological target: African cichlid nackednavirus capsid protein (African cichlid nackednavirus (ACNDV))
Assay: cryo-EM structure; capsids assembled in E. coli and purified; TRIS buffer (50 mM TRIS, 50 mM NaCl, 5 mM EDTA, 5 mM DTT), pH 7.5; icosahedral symmetry imposed

African cichlid nackednavirus capsid protein (natural protein)
stoichiometry N (protein dimers): 90
